The target of series [1] is EGF (Homo sapiens) (UniProt P01133). Put plainly: functional ELISA. The settings on record: cited from earlier work.
Series [2] concerns the target T1, recombinant human EGFR/ErbB1 Fc Chimera (human, UniProt P00533 25-645). Put plainly: nanogap break-junction I-V measurement.
The target of series [3] is T1, recombinant human EGFR/ErbB1 Fc Chimera. Put plainly: surface capture, Sypro Ruby fluorescence.

Chain of EGF (Homo sapiens) (P01133 971-1023): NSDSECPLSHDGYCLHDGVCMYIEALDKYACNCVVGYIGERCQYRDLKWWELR

Take “EGFR/ErbB1 Fc chimera (from UniProt P00533)”: in series [1], the Kd was below 8 nM.

B1: extended mutant (scrambled) aptamer hybridized to surface-anchored capture ssDNA (mixed)
RNA: GGCGCUCCGACCUUAGUCUCUGUUCCCACAUCAUGCACAAGGACAAUUCUGUGCAUCCAAGGAGGAGUUCUCGGAACCGUGUAGCACAGCAGAGAAUUAAAUGCCCGCCAUGACCAG
DNA: CTGGTCATGGCGGGCATTTAATTC
modifications: 5'-amine on DNA strand S3
Consider B1, for which the binding result in series [2] is reported as “no binding”.

B2: extended anti-EGFR RNA aptamer hybridized to surface-anchored capture ssDNA (mixed)
RNA: GGCGCUCCGACCUUAGUCUCUGUGCCGCUAUAAUGCACGGAUUUAAUCGCCGUAGAAAAGCAUGUCAAAGCCGGAACCGUGUAGCACAGCAGAGAAUUAAAUGCCCGCCAUGACCAG
DNA: CTGGTCATGGCGGGCATTTAATTC
modifications: 5'-amine on DNA strand S3
B2: in series [3], the binding result was “binds”.
